These results are taken from publication PMC5170866 (Molecular Biology of the Cell, 2016).

For this assay, the target named is Recombinant His-tagged CYFIP2-N (aa 1–624) (mouse, UniProt Q5SQX6 1-624). Description: pull-down.
Recombinant His-tagged CYFIP2-N (aa 1–624), sequence (Q5SQX6 1-624): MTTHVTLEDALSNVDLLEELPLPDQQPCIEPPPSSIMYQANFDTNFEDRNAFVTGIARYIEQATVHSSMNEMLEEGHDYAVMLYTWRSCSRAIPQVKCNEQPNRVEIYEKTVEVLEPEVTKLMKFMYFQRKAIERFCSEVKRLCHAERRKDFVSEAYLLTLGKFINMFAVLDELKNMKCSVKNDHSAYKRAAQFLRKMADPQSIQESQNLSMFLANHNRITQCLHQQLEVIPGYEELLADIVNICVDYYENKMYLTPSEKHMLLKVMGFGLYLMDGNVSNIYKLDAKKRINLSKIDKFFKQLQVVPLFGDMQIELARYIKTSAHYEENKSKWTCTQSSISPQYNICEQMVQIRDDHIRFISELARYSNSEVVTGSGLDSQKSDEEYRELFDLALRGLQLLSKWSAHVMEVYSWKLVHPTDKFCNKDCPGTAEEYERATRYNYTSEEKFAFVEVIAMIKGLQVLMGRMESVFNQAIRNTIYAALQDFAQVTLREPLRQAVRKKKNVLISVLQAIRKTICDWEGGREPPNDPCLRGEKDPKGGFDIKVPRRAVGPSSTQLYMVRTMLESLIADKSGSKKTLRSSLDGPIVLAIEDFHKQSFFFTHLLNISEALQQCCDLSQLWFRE

B1: C-terminus of retrolinkin (RTLN-C, aa 489–574) fused to GST (domain or fragment, mouse, UniProt Q8BHE4 489-574, looked up)
chain: CCMRRKKKTANPENNLSYWNNAITMDYFNRHAVELPREIQSLETSEDQLSEPRSPANGDYRDTGMVLVNPFCQETLFVGNDQVSEI
For B1, the binding result is reported as “binds”.
